US8461106B2, “Biofilm prevention using lactoferrin” (The Trustees of the University of Pennsylvania, priority 2007, dated 2013)

System: Pseudomonas aeruginosa (PAO1)
Assay: Plate based peg-lid crystal violet biofilm formation assay (Moskowitz)
Type: cell-based
Conditions: for detergent induced biofilm formation, effect of concomitant rhLactoferrin: 3 mg/ml rhLactoferrin
Description: Biofilm growth is determined using the plate based assay described by Moskowitz et al [Moskowitz, S. M., J. M. Foster, J. Emerson, et al., Clinically Feasible Biofilm Susceptibility Assay for Isolates of Pseudomonas Aeruginosa from Patients with Cystic Fibrosis. J Clin Microbiol, 2004. 42(5): p. 1915-22]. Pseudomonas aeruginosa (PAO1) cultures are grown to log phase (OD600=0.5) and 100 μl of culture is mixed with 25 μl of test 5× test substance and placed in 96 well flat bottom plates (Nalgene Nunc International, Rochester, N.Y.). A lid containing 96 polystyrene pegs (Nunc, TSP 96 well micro titer plate lid) is placed on top and the pegs are suspended in the wells. The lid is loosely fixed to the plate using a strip of parafilm (Menasha, Wis.). The plate is incubated without shaking at 37° C. for 20 hours at which time the lid containing the pegs is carefully removed from the 96 well culture plate and rinsed 3 times in sterile water. The pegs are placed in another 96 well plate containing Gram Crystal Violet (CV) (20 g/L CV, 8 g/L Ammonium Oxalate, 2% ethanol) for 15 min and then rinsed in sterile water three times to remove unbound crystal violet. The pegs are then immersed in a 96 well plate containing 200 ul of 100% EtOH for 15 minutes. The lid containing the pegs is removed from the eluted crystal violet and is read at 595 nm using a plate reader (Microplate Reader 680, Bio-Rad Hercules, Calif.).
These mutants are used as negative controls in each of the experiments to determine background signal above the blank.
The concentration of baby shampoo/chemical surfactant used for the clinical study was determined through in-vitro testing on planktonic pseudomonas aeruginosa and pre-formed pseudomonas aeruginosa biofilms. Bacterial and biofilm growth inhibition was determined using the plate based assay described in Moskowitz et al., (Clinically feasible biofilm susceptibility assay for isolates of Pseudomonas aeruginosa from patients with cystic fibrosis. J. Clinical Microbiology 2004; 42:1915-22). Briefly, PAO1 Pseudomonas aeruginosa bacterial strains were grown overnight. The following morning the culture was diluted to an OD600=0.1 with Luria-Bertani broth (LB) and the sample again diluted 1:100 in LB. […] At the completion of the incubation the lid containing the pegs was removed and processed for biofilm detection while the 96 well plate was analyzed for bacterial growth by determination of absorbance at 600 nm. […] The peg lid was then discarded and the eluted crystal violate was read on a microtiter plate reader (Microplate Reader 680, Bio-Rad Hercules, Calif.) at an optical density of 595 nm (OD595). […] Quantification of residual biofilms was performed as described above.

B1: rhLactoferrin: Recombinant human lactoferrin produced in Aspergillus niger, structurally identical to native human lactoferrin (protein, UniProt P02788 20-710, looked up)
Lactotransferrin: GRRRSVQWCAVSQPEATKCFQWQRNMRKVRGPPVSCIKRDSPIQCIQAIAENRADAVTLDGGFIYEAGLAPYKLRPVAAEVYGTERQPRTHYYAVAVVKKGGSFQLNELQGLKSCHTGLRRTAGWNVPIGTLRPFLNWTGPPEPIEAAVARFFSASCVPGADKGQFPNLCRLCAGTGENKCAFSSQEPYFSYSGAFKCLRDGAGDVAFIRESTVFEDLSDEAERDEYELLCPDNTRKPVDKFKDCHLARVPSHAVVARSVNGKEDAIWNLLRQAQEKFGKDKSPKFQLFGSPSGQKDLLFKDSAIGFSRVPPRIDSGLYLGSGYFTAIQNLRKSEEEVAARRARVVWCAVGEQELRKCNQWSGLSEGSVTCSSASTTEDCIALVLKGEADAMSLDGGYVYTAGKCGLVPVLAENYKSQQSSDPDPNCVDRPVEGYLAVAVVRRSDTSLTWNSVKGKKSCHTAVDRTAGWNIPMGLLFNQTGSCKFDEYFSQSCAPGSDPRSNLCALCIGDEQGENKCVPNSNERYYGYTGAFRCLAENAGDVAFVKDVTVLQNTDGNNNEAWAKDLKLADFALLCLDGKRKPVTEARSCHLAMAPNHAVVSRMDKVERLKQVLLHQQAKFGRNGSDCPDKFCLFQSETKNLLFNDNTECLARLHGKTTYEKYLGPQYVAGITNLKKCSTSPLLEACEFLRK
modifications: recombinant, Aspergillus niger
In the case of B1, the “detergent induced biofilm formation, effect of concomitant rhLactoferrin” value (induction by Curosurf, FIG. 5 bottom panel) is reported as “blunts the induction of biofilm formation”, the “detergent induced biofilm formation, effect of concomitant rhLactoferrin” value (induction by Johnson and Johnson Baby Shampoo, FIG. 5 top panel) is reported as “blunts the induction of biofilm formation” and the “detergent induced biofilm formation, effect of rhLactoferrin” value (detergents in general, FIGS. 4 and 5) is reported as “inhibits detergent induced biofilm formation”. The “induction of biofilm formation by subtherapeutic concentrations of antibiotics, effect of added rhLactoferrin” value (subtherapeutic Cephalosporins and aminoglycosides, FIG. 3) was “blunted”.
